According to IntAct's records for PubMed 31515488:

B1: Keratin, type II cytoskeletal 6A (Homo sapiens), P02538 (parent)
chain: MASTSTTIRSHSSSRRGFSANSARLPGVSRSGFSSVSVSRSRGSGGLGGACGGAGFGSRSLYGLGGSKRISIGGGSCAISGGYGSRAGGSYGFGGAGSGFGFGGGAGIGFGLGGGAGLAGGFGGPGFPVCPPGGIQEVTVNQSLLTPLNLQIDPTIQRVRAEEREQIKTLNNKFASFIDKVRFLEQQNKVLETKWTLLQEQGTKTVRQNLEPLFEQYINNLRRQLDSIVGERGRLDSELRGMQDLVEDFKNKYEDEINKRTAAENEFVTLKKDVDAAYMNKVELQAKADTLTDEINFLRALYDAELSQMQTHISDTSVVLSMDNNRNLDLDSIIAEVKAQYEEIAQRSRAEAESWYQTKYEELQVTAGRHGDDLRNTKQEIAEINRMIQRLRSEIDHVKKQCANLQAAIADAEQRGEMALKDAKNKLEGLEDALQKAKQDLARLLKEYQELMNVKLALDVEIATYRKLLEGEECRLNGEGVGQVNISVVQSTVSSGYGGASGVGSGLGLGGGSSYSYGSGLGVGGGFSSSSGRAIGGGLSSVGGGSSTIKYTTTSSSSRKSYKH
B2: Chorion-specific transcription factor GCMb (Homo sapiens), O75603 (parent)
chain: MPAAAVQEAVGVCSYGMQLSWDINDPQMPQELALFDQFREWPDGYVRFIYSSDEKKAQRHLSGWAMRNTNNHNGHILKKSCLGVVVCTQACTLPDGSRLQLRPAICDKARLKQQKKACPNCHSALELIPCRGHSGYPVTNFWRLDGNAIFFQAKGVHDHPRPESKSETEARRSAIKRQMASFYQPQKKRIRESEAEENQDSSGHFSNIPPLENPEDFDIVTETSFPIPGQPCPSFPKSDVYKATCDLATFQGDKMPPFQKYSSPRIYLPRPPCSYELANPGYTNSSPYPTLYKDSTSIPNDTDWVHLNTLQCNVNSYSSYERSFDFTNKQHGWKPALGKPSLVERTNHGQFQAMATRPYYNPELPCRYLTTPPPGAPALQTVITTTTKVSYQAYQPPAMKYSDSVREVKSLSSCNYAPEDTGMSVYPEPWGPPVTVTRAASPSGPPPMKIAGDCRAIRPTVAIPHEPVSSRTDEAETWDVCLSGLGSAVSYSDRVGPFFTYNNEDF
partner: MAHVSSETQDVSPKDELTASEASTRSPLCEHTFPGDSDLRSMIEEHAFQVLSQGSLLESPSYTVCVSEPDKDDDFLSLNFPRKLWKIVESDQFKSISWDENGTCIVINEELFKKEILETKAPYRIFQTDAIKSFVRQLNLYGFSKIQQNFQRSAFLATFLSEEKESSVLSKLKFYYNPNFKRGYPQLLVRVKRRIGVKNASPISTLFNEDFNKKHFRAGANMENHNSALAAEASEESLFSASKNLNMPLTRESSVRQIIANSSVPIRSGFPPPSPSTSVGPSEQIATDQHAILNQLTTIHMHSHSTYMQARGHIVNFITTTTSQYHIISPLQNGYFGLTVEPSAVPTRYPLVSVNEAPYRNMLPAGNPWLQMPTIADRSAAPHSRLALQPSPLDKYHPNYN
B3: Notch homolog 2 N-terminal-like protein A (Homo sapiens), Q7Z3S9 (parent)
chain: MCVTYHNGTGYCKCPEGFLGEYCQHRDPCEKNRCQNGGTCVAQAMLGKATCRCASGFTGEDCQYSTSHPCFVSRPCLNGGTCHMLSRDTYECTCQVGFTGKECQWTDACLSHPCANGSTCTTVANQFSCKCLTGFTGQKCETDVNECDIPGHCQHGGTCLNLPGSYQCQCLQGFTGQYCDSLYVPCAPSPCVNGGTCRQTGDFTFECNCLPETVRRGTELWERDREVWNGKEHDEN
partner: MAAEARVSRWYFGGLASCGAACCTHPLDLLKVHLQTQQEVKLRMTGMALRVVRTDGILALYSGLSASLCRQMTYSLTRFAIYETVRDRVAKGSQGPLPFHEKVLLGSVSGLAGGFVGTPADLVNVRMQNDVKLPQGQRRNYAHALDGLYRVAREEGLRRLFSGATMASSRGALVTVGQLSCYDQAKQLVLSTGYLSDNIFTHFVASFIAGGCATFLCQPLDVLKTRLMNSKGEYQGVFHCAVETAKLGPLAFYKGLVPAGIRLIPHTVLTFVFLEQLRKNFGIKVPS
B4: Fructose-bisphosphate aldolase C (Homo sapiens), P09972 (parent)
chain: MPHSYPALSAEQKKELSDIALRIVAPGKGILAADESVGSMAKRLSQIGVENTEENRRLYRQVLFSADDRVKKCIGGVIFFHETLYQKDDNGVPFVRTIQDKGIVVGIKVDKGVVPLAGTDGETTTQGLDGLSERCAQYKKDGADFAKWRCVLKISERTPSALAILENANVLARYASICQQNGIVPIVEPEILPDGDHDLKRCQYVTEKVLAAVYKALSDHHVYLEGTLLKPNMVTPGHACPIKYTPEEIAMATVTALRRTVPPAVPGVTFLSGGQSEEEASFNLNAINRCPLPRPWALTFSYGRALQASALNAWRGQRDNAGAATEEFIKRAEVNGLAAQGKYEGSGEDGGAAAQSLYIANHAY
partner: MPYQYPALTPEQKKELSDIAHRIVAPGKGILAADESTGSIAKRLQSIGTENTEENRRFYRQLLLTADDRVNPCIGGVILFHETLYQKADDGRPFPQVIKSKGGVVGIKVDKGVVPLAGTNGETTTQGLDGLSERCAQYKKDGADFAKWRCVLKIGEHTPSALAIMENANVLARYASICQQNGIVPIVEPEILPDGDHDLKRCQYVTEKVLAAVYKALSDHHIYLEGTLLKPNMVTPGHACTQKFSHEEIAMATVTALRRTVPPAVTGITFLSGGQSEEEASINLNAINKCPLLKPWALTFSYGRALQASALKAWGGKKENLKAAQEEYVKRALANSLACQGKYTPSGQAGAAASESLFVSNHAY
B5: Four and a half LIM domains protein 3 (Homo sapiens), Q13643 (parent)
chain: MSESFDCAKCNESLYGRKYIQTDSGPYCVPCYDNTFANTCAECQQLIGHDSRELFYEDRHFHEGCFRCCRCQRSLADEPFTCQDSELLCNDCYCSAFSSQCSACGETVMPGSRKLEYGGQTWHEHCFLCSGCEQPLGSRSFVPDKGAHYCVPCYENKFAPRCARCSKTLTQGGVTYRDQPWHRECLVCTGCQTPLAGQQFTSRDEDPYCVACFGELFAPKCSSCKRPIVGLGGGKYVSFEDRHWHHNCFSCARCSTSLVGQGFVPDGDQVLCQGCSQAGP
partner: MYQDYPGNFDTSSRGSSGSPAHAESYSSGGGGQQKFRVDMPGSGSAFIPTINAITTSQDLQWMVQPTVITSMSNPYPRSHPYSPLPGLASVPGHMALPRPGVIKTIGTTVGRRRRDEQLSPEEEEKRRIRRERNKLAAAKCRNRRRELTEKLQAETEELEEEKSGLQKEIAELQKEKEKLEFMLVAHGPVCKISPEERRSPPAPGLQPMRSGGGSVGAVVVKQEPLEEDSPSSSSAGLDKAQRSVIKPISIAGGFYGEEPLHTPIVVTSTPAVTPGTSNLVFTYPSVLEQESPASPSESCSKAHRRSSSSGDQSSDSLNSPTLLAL
B6: Translocator protein (Homo sapiens), P30536 (parent)
chain: MAPPWVPAMGFTLAPSLGCFVGSRFVHGEGLRWYAGLQKPSWHPPHWVLGPVWGTLYSAMGYGSYLVWKELGGFTEKAVVPLGLYTGQLALNWAWPPIFFGARQMGWALVDLLLVSGAAAATTVAWYQVSPLAARLLYPYLAWLAFTTTLNYCVWRDNHGWRGGRRLPE
partner: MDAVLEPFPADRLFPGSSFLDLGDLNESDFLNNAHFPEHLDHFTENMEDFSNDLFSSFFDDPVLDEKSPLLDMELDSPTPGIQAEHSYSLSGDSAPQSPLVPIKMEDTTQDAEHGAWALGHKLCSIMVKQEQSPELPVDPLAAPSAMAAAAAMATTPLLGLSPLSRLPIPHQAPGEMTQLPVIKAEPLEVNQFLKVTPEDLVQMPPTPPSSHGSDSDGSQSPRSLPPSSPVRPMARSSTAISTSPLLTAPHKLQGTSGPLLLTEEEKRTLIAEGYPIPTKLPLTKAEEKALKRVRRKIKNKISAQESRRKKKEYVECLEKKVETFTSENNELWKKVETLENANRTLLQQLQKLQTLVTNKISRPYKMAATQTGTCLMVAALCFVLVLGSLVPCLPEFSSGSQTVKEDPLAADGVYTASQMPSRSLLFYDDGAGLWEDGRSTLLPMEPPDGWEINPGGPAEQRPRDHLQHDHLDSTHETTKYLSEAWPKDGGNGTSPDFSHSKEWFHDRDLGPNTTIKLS
B7: Serine/threonine-protein kinase PAK 6 (Homo sapiens), Q9NQU5 (parent)
chain: MFRKKKKKRPEISAPQNFQHRVHTSFDPKEGKFVGLPPQWQNILDTLRRPKPVVDPSRITRVQLQPMKTVVRGSAMPVDGYISGLLNDIQKLSVISSNTLRGRSPTSRRRAQSLGLLGDEHWATDPDMYLQSPQSERTDPHGLYLSCNGGTPAGHKQMPWPEPQSPRVLPNGLAAKAQSLGPAEFQGASQRCLQLGACLQSSPPGASPPTGTNRHGMKAAKHGSEEARPQSCLVGSATGRPGGEGSPSPKTRESSLKRRLFRSMFLSTAATAPPSSSKPGPPPQSKPNSSFRPPQKDNPPSLVAKAQSLPSDQPVGTFSPLTTSDTSSPQKSLRTAPATGQLPGRSSPAGSPRTWHAQISTSNLYLPQDPTVAKGALAGEDTGVVTHEQFKAALRMVVDQGDPRLLLDSYVKIGEGSTGIVCLAREKHSGRQVAVKMMDLRKQQRRELLFNEVVIMRDYQHFNVVEMYKSYLVGEELWVLMEFLQGGALTDIVSQVRLNEEQIATVCEAVLQALAYLHAQGVIHRDIKSDSILLTLDGRVKLSDFGFCAQISKDVPKRKSLVGTPYWMAPEVISRSLYATEVDIWSLGIMVIEMVDGEPPYFSDSPVQAMKRLRDSPPPKLKNSHKVSPVLRDFLERMLVRDPQERATAQELLDHPFLLQTGLPECLVPLIQLYRKQTSTC
B8: Enhancer of mRNA-decapping protein 3 (Homo sapiens), Q96F86 (parent)
chain: MATDWLGSIVSINCGDSLGVYQGRVSAVDQVSQTISLTRPFHNGVKCLVPEVTFRAGDITELKILEIPGPGDNQHFGDLHQTELGPSGAGCQVGINQNGTGKFVKKPASSSSAPQNIPKRTDVKSQDVAVSPQQQQCSKSYVDRHMESLSQSKSFRRRHNSWSSSSRHPNQATPKKSGLKNGQMKNKDDECFGDDIEEIPDTDFDFEGNLALFDKAAVFEEIDTYERRSGTRSRGIPNERPTRYRHDENILESEPIVYRRIIVPHNVSKEFCTDSGLVVPSISYELHKKLLSVAEKHGLTLERRLEMTGVCASQMALTLLGGPNRLNPKNVHQRPTVALLCGPHVKGAQGISCGRHLANHDVQVILFLPNFVKMLESITNELSLFSKTQGQQVSSLKDLPTSPVDLVINCLDCPENVFLRDQPWYKAAVAWANQNRAPVLSIDPPVHEVEQGIDAKWSLALGLPLPLGEHAGRIYLCDIGIPQQVFQEVGINYHSPFGCKFVIPLHSA
B9: GTP-binding protein GEM (Homo sapiens), P55040 (parent)
chain: MTLNNVTMRQGTVGMQPQQQRWSIPADGRHLMVQKEPHQYSHRNRHSATPEDHCRRSWSSDSTDSVISSESGNTYYRVVLIGEQGVGKSTLANIFAGVHDSMDSDCEVLGEDTYERTLMVDGESATIILLDMWENKGENEWLHDHCMQVGDAYLIVYSITDRASFEKASELRIQLRRARQTEDIPIILVGNKSDLVRCREVSVSEGRACAVVFDCKFIETSAAVQHNVKELFEGIVRQVRLRRDSKEKNERRLAYQKRKESMPRKARRFWGKIVAKNNKNMAFKLKSKSCHDLSVL

Variants of: B1
Settings: with KRT17, Q04695
Sequence of KRT17, Q04695 (Q04695 whole entry): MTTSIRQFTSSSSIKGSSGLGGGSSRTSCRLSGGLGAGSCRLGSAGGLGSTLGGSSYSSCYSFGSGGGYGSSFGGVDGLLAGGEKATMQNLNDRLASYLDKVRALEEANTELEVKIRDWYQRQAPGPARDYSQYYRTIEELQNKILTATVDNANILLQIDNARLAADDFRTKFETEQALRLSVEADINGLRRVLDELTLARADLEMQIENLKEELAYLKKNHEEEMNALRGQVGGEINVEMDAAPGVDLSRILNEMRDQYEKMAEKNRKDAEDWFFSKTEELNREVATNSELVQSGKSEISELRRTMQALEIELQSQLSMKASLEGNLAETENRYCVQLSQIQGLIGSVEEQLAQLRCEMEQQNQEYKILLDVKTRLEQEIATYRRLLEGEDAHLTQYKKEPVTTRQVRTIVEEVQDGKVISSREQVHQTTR

| effect of a mutation on the interaction | Variant |
| --- | --- |
| with no effect | R559G |
| with no effect | A335T |
| with no effect | L210M |

Variants of: B1
Settings: with tfp11_human TFIP11, Q9UBB9
Sequence of tfp11_human TFIP11, Q9UBB9 (Q9UBB9 whole entry): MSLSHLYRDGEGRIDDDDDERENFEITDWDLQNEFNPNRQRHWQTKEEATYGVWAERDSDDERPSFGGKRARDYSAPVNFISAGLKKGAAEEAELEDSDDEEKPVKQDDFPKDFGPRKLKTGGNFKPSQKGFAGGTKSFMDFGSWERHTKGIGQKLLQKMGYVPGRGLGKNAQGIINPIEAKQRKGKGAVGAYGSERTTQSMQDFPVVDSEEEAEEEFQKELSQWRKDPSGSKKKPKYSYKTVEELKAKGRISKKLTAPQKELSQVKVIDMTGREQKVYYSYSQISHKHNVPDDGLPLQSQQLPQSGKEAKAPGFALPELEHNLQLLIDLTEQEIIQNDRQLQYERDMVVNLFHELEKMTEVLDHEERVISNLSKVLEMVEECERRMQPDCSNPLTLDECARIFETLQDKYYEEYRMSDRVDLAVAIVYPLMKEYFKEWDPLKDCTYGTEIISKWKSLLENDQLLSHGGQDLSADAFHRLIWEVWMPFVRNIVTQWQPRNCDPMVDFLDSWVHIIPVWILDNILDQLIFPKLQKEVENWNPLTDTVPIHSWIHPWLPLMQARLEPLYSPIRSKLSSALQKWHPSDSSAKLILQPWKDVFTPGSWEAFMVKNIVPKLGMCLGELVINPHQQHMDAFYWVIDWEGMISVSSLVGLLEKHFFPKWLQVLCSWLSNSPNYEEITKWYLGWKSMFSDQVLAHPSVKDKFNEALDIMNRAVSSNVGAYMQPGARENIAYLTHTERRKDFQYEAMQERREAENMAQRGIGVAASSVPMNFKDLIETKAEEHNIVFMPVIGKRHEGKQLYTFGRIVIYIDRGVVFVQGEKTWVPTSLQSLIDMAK

| effect of a mutation on the interaction | Variant |
| --- | --- |
| with no effect | R559G |
| with no effect | A335T |
| with no effect | L210M |

Variants of: B1
Settings: with KRT15, P19012
Sequence of KRT15, P19012 (P19012 whole entry): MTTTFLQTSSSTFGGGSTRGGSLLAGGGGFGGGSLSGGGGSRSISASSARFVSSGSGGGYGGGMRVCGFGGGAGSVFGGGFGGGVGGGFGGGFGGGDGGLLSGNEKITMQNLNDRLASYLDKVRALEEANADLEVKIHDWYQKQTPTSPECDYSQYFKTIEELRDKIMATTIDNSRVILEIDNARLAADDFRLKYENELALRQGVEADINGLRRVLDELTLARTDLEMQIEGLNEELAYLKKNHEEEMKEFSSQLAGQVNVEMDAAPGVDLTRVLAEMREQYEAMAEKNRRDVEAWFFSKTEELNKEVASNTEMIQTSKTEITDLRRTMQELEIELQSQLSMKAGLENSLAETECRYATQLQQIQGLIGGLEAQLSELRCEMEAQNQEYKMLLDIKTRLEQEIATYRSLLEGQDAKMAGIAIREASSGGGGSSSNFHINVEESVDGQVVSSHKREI

| effect of a mutation on the interaction | Variant |
| --- | --- |
| with no effect | R559G |
| with no effect | A335T |
| with no effect | L210M |

Variants of: B2
Settings: with hsfy1_human HSFY1, Q96LI6

| effect of a mutation on the interaction | Variant |
| --- | --- |
| with no effect | D53N |

Variants of: B3
Settings: with dic_human SLC25A10, Q9UBX3

| effect of a mutation on the interaction | Variant |
| --- | --- |
| with no effect | R74Q |
| with no effect | A115T |

Variants of: B4
Settings: with aldoa_human ALDOA

| effect of a mutation on the interaction | Variant |
| --- | --- |
| with no effect | N312S |

Variants of: B5
Settings: with fosl2_human FOSL2, P15408

| effect of a mutation on the interaction | Variant |
| --- | --- |
| with no effect | R226H |

Variants of: B6
Settings: with cr3l1_human CREB3L1, Q96BA8

| effect of a mutation on the interaction | Variant |
| --- | --- |
| disrupting interaction strength | A119V |

Variants of: B7
Settings: with rhoj_human RHOJ

| Variant | effect of a mutation on the interaction |
| --- | --- |
| V54M | with no effect |
| R103C | with no effect |

The next lines start with the values.

| effect of a mutation on the interaction | Variant |
| --- | --- |
| with no effect | H215R |
| disrupting interaction strength | L514R |

Variants of: B8
Settings: with ddx6_human DDX6, P26196
Sequence of ddx6_human DDX6, P26196 (P26196 whole entry): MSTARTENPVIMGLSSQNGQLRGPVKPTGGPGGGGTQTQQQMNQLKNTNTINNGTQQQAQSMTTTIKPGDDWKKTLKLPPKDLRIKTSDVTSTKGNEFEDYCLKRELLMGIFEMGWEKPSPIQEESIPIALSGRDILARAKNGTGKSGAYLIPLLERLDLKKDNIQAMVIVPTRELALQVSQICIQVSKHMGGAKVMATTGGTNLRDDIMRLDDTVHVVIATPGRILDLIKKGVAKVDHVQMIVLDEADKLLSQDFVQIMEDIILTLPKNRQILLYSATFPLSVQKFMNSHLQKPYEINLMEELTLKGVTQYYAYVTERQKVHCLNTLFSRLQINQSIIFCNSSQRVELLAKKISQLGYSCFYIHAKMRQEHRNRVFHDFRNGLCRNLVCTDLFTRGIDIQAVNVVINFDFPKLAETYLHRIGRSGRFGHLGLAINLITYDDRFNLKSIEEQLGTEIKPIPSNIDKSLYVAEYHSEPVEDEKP

| effect of a mutation on the interaction | Variant |
| --- | --- |
| with no effect | R232G |

Variants of: B9
Settings: with ldoc1_human LDOC1, O95751
Sequence of ldoc1_human LDOC1, O95751 (O95751 whole entry): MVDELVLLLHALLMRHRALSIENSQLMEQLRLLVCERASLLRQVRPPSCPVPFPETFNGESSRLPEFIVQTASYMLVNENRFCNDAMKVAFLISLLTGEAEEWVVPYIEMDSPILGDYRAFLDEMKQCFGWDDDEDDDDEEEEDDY

| effect of a mutation on the interaction | Variant |
| --- | --- |
| with no effect | R43G |

Variants of: B9
Settings: with tri23_human TRIM23, P36406
Sequence of tri23_human TRIM23, P36406 (P36406 whole entry): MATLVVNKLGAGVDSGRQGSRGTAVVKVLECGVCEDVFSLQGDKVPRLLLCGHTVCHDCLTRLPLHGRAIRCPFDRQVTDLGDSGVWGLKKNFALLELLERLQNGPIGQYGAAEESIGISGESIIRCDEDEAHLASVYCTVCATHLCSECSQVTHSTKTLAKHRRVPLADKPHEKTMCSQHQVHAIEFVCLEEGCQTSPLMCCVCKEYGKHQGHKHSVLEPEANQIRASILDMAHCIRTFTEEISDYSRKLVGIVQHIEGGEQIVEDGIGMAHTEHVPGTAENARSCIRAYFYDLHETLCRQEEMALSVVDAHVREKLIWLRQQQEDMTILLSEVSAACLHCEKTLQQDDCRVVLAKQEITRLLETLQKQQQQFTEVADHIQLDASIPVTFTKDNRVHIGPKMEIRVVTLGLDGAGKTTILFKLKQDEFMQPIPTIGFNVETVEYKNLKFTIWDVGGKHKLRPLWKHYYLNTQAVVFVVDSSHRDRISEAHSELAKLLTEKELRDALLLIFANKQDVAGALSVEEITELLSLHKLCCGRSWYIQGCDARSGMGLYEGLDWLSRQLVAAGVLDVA

| effect of a mutation on the interaction | Variant |
| --- | --- |
| with no effect | R43G |

Variants of: B9
Settings: with nemo_human IKBKG

| effect of a mutation on the interaction | Variant |
| --- | --- |
| with no effect | R43G |

Variants of: B9
Settings: with mtus2_human MTUS2, Q5JR59
Sequence of mtus2_human MTUS2, Q5JR59 (Q5JR59 whole entry): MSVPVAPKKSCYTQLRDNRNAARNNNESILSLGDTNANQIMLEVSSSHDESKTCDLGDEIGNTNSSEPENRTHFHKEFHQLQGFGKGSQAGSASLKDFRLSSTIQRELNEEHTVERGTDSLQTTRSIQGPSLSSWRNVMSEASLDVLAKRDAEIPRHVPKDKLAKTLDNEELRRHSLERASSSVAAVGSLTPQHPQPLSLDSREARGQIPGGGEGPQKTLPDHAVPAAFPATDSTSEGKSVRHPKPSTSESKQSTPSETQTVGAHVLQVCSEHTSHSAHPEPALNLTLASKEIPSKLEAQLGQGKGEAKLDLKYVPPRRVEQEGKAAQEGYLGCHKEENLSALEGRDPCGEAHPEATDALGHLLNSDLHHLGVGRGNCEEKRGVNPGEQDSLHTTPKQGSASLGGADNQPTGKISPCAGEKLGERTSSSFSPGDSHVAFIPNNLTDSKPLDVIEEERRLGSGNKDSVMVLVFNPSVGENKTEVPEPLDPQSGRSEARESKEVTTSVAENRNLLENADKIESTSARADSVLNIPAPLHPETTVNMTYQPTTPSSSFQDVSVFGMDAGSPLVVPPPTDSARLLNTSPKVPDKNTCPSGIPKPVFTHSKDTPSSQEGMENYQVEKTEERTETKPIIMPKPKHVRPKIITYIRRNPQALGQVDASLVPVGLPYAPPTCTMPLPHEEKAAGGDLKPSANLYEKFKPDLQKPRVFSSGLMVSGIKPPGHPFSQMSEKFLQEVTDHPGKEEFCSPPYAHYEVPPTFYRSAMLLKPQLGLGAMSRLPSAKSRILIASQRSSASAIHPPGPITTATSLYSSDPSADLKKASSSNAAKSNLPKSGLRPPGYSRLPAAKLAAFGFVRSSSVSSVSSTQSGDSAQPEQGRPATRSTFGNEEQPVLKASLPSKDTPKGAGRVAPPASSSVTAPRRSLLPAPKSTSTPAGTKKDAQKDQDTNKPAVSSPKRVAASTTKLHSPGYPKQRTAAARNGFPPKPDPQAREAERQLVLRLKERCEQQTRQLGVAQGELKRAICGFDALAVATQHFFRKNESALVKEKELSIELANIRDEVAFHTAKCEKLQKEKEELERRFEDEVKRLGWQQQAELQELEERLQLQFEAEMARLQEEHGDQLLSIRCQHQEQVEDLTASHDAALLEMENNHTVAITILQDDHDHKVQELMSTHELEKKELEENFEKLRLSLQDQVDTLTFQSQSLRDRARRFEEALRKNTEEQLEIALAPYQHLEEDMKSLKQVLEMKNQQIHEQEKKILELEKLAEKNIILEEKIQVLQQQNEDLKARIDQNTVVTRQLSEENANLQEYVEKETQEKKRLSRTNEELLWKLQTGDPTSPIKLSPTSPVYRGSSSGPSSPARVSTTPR

| effect of a mutation on the interaction | Variant |
| --- | --- |
| with no effect | R43G |

Variants of: B9
Settings: with pdli7_human PDLIM7, Q9NR12
Sequence of pdli7_human PDLIM7, Q9NR12 (Q9NR12 whole entry): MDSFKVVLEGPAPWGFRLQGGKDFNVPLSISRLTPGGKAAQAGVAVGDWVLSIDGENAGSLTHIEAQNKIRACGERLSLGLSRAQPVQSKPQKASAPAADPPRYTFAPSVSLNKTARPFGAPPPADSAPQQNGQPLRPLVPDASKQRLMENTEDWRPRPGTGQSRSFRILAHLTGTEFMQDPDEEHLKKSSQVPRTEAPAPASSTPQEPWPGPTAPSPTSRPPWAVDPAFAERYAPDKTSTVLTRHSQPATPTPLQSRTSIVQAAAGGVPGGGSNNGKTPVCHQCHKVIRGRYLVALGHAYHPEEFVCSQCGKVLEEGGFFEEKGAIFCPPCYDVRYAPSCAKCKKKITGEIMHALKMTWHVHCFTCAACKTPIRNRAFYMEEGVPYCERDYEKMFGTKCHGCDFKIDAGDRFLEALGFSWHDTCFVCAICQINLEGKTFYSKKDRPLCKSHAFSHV

| effect of a mutation on the interaction | Variant |
| --- | --- |
| with no effect | R43G |
